Key:
PET [1] = experiment: Proxy for plastic degradation [Released monomer concentration (HPLC/LC-MS) (TPA)]; details: pH 8.5
PET [2] = experiment: Proxy for plastic degradation [Released monomer concentration (HPLC/LC-MS) (MHET)]; details: pH 8.5
PET [3] = experiment: Proxy for plastic degradation [Released monomer concentration (HPLC/LC-MS) (Total aromatic products)]; details: pH 8.5
p-NP-C10 = details: pH 8; 35 °C
p-NP-C12 = details: pH 8; 35 °C
p-NP-C14 = details: pH 8; 35 °C
p-NP-C16 = details: pH 8; 35 °C
p-NP-C18 = details: pH 8; 35 °C
p-NP-C2 = details: pH 8; 35 °C
p-NP-C4 = details: pH 8; 35 °C
p-NP-C6 = details: pH 8; 35 °C
p-NP-C8 = details: pH 8; 35 °C
pNPB = experiment: Proxy for plastic degradation [Absorbance @ 405nm]
PET [4] = experiment: Proxy for plastic degradation [Released monomer concentration (HPLC/LC-MS) (BHET)]; details: pH 8.5

B1: unnamed (protein)
chain: MNFPRASRLMQAAVLGGLMAVSAAATAQTNPYARGPNPTAASLEASAGPFTVRSFTVSRPSGYGAGTVYYPTNAGGTVGAIAIVPGYTARQSSIKWWGPRLASHGFVVITIDTNSTLDQPSSRSSQQMAALRQVASLNGTSSSPIYGKVDTARMGVMGWSMGGGGSLISAANNPSLKAAAPQAPWDSSTNFSSVTVPTLIFACENDSIAPVNSSALPIYDSMSRNAKQFLEINGGSHSCANSGNSNQALIGKKGVAWMKRFMDNDTRYSTFACENPNSTRVSDFRTANCS
Proxy for plastic degradation (PET [1]; 12 h, part of the chain shown): 30 µM | Proxy for plastic degradation (PET [1]; 24 h, part of the chain shown): 37.5 µM | Proxy for plastic degradation (PET [1]; 36 h, part of the chain shown): 42.5 µM | Proxy for plastic degradation (PET [1]; 48 h, part of the chain shown): 47.5 µM | Proxy for plastic degradation (PET [1]; 60 h, part of the chain shown): 50 µM | Proxy for plastic degradation (PET [1]; 72 h, part of the chain shown): 60 µM | Proxy for plastic degradation (PET [1]; 84 h, part of the chain shown): 70 µM | Proxy for plastic degradation (PET [1]; 96 h, part of the chain shown): 80 µM | Proxy for plastic degradation (PET [1]; 108 h, part of the chain shown): 100 µM | Proxy for plastic degradation (PET [2]; 12 h, part of the chain shown): 140 µM | Proxy for plastic degradation (PET [2]; 24 h, part of the chain shown): 150 µM | Proxy for plastic degradation (PET [2]; 36 h, part of the chain shown): 160 µM | Proxy for plastic degradation (PET [2]; 48 h, part of the chain shown): 165 µM | Proxy for plastic degradation (PET [2]; 60 h, part of the chain shown): 155 µM | Proxy for plastic degradation (PET [2]; 72 h, part of the chain shown): 155 µM | Proxy for plastic degradation (PET [2]; 84 h, part of the chain shown): 158 µM | Proxy for plastic degradation (PET [2]; 96 h, part of the chain shown): 165 µM | Proxy for plastic degradation (PET [2]; 108 h, part of the chain shown): 158 µM | Proxy for plastic degradation (PET [3]; 16 h, part of the chain shown): 175 µM | Proxy for plastic degradation (PET [3]; 27.75 h, part of the chain shown): 200 µM | Proxy for plastic degradation (PET [3]; 39.5 h, part of the chain shown): 210 µM | Proxy for plastic degradation (PET [3]; 51.25 h, part of the chain shown): 220 µM | Proxy for plastic degradation (PET [3]; 60 h, part of the chain shown): 215 µM | Proxy for plastic degradation (PET [3]; 74.75 h, part of the chain shown): 225 µM | Proxy for plastic degradation (PET [3]; 86.5 h, part of the chain shown): 235 µM | Proxy for plastic degradation (PET [3]; 98.25 h, part of the chain shown): 240 µM | Proxy for plastic degradation (PET [3]; 110 h, part of the chain shown): 250 µM

B2: unnamed (protein)
chain: MLTHSISPEETDGGRRTPLSRMSRLAARVGVTLSLAAGLTAGVTAPAHASNPYERGPAPTESSVTAVRGYFDTDTDTVSSLVSGFGGGTIYYPTDTSEGTFGGVVIAPGYTASQSSMAWMGHRIASQGFVVFTIDTITRYDQPDSRGRQIEAALDYLVEDSDVADRVDGNRLAVMGHSMGGGGTLAAAENRPELRAAIPLTPWHLQKNWSDVEVPTMIIGAENDTVASVRTHSIPFYESLDEDLERAYLELDGASHFAPNISNTVIAKYSISWLKRFVDEDERYEQFLCPPPDTGLFSDFSDYRDSCPHTT
Km (p-NP-C10): 4930 µM | kcat (p-NP-C10): 69.9 s⁻¹ | kcat/Km (p-NP-C10): 14200 M⁻¹ s⁻¹ | Km (p-NP-C12): 1680 µM | kcat (p-NP-C12): 30.5 s⁻¹ | kcat/Km (p-NP-C12): 18200 M⁻¹ s⁻¹ | Km (p-NP-C14): 190 µM | kcat (p-NP-C14): 9.87 s⁻¹ | kcat/Km (p-NP-C14): 51900 M⁻¹ s⁻¹ | Km (p-NP-C16): 150 µM | kcat (p-NP-C16): 4.79 s⁻¹ | kcat/Km (p-NP-C16): 31900 M⁻¹ s⁻¹ | Km (p-NP-C18): 450 µM | kcat (p-NP-C18): 14.3 s⁻¹ | kcat/Km (p-NP-C18): 31800 M⁻¹ s⁻¹ | Km (p-NP-C2): 550 µM | kcat (p-NP-C2): 4.47 s⁻¹ | kcat/Km (p-NP-C2): 8130 M⁻¹ s⁻¹ | Km (p-NP-C4): 1330 µM | kcat (p-NP-C4): 14.1 s⁻¹ | kcat/Km (p-NP-C4): 10600 M⁻¹ s⁻¹ | Km (p-NP-C6): 4610 µM | kcat (p-NP-C6): 41.7 s⁻¹ | kcat/Km (p-NP-C6): 9050 M⁻¹ s⁻¹ | Km (p-NP-C8): 2550 µM | kcat (p-NP-C8): 79.4 s⁻¹ | kcat/Km (p-NP-C8): 31100 M⁻¹ s⁻¹ | Proxy for plastic degradation (pNPB; pH 8): 100% | Proxy for plastic degradation (pNPB; pH 8, 0 h): 100% | Proxy for plastic degradation (pNPB; pH 8.5): 97.5% | Proxy for plastic degradation (PET [1]; 12 h): 5 µM | Proxy for plastic degradation (PET [1]; 24 h): 12.5 µM | Proxy for plastic degradation (PET [1]; 36 h): 25 µM | Proxy for plastic degradation (PET [1]; 48 h): 50 µM | Proxy for plastic degradation (PET [1]; 60 h): 70 µM | Proxy for plastic degradation (PET [1]; 72 h): 75 µM | Proxy for plastic degradation (PET [1]; 84 h): 120 µM | Proxy for plastic degradation (PET [1]; 96 h): 150 µM | Proxy for plastic degradation (PET [1]; 108 h): 180 µM | Proxy for plastic degradation (PET [4]): 1 µM | Proxy for plastic degradation (PET [2]; 12 h): 5 µM | Proxy for plastic degradation (PET [2]; 24 h): 10 µM | Proxy for plastic degradation (PET [2]; 36 h): 20 µM | Proxy for plastic degradation (PET [2]; 48 h): 70 µM | Proxy for plastic degradation (PET [2]; 60 h): 105 µM | Proxy for plastic degradation (PET [2]; 72 h): 140 µM | Proxy for plastic degradation (PET [2]; 84 h): 135 µM | Proxy for plastic degradation (PET [2]; 96 h): 155 µM | Proxy for plastic degradation (PET [2]; 108 h): 150 µM | Proxy for plastic degradation (PET [3]; 30 °C): 45 µM | Proxy for plastic degradation (PET [3]; 35 °C): 130 µM | Proxy for plastic degradation (PET [3]; 40 °C): 230 µM | Proxy for plastic degradation (PET [3]; 45 °C): 330 µM | Proxy for plastic degradation (PET [3]; 50 °C): 100 µM

B3: unnamed (protein)
chain: MLTHSISPEETDGGRRTPLSRMSRLAARVGVTLSLAAGLTAGVTAPAHASNPYERGPAPTESSVTAVRGYFDTDTDTVSSLVSGFGGGTIYYPTDTSEGTFGGVVIAPGYTASQSSMAWMGHRIASQGFVVFTIDTITRYDQPDSRGRQIEAALDYLVEDSDVADRVDGNRLAVMGHSMGGGGTLAAAENRPELRAAIPLTPWHLQKNWSDVEVPTMIIGAENDTVASVRTHSIPFYESLDEDLERAYLELAGASHFAPNISNTVIAKYSISWLKRFVDEDERYEQFLCPPPDTGLFSDFSDYRDSCPHTT
Proxy for plastic degradation (pNPB; pH 8, 0 h): 100% | Proxy for plastic degradation (pNPB; pH 8, 5 °C): 15% | Proxy for plastic degradation (pNPB; pH 8, 10 °C): 17.5% | Proxy for plastic degradation (pNPB; pH 8, 15 °C): 20% | Proxy for plastic degradation (pNPB; pH 8, 20 °C): 32.5% | Proxy for plastic degradation (pNPB; pH 8, 25 °C): 50% | Proxy for plastic degradation (pNPB; pH 8, 30 °C): 90% | Proxy for plastic degradation (pNPB; pH 8, 35 °C): 100% | Proxy for plastic degradation (pNPB; pH 8, 40 °C): 80% | Proxy for plastic degradation (pNPB; pH 8, 45 °C): 70% | Proxy for plastic degradation (pNPB; pH 8, 50 °C): 37.5% | Proxy for plastic degradation (pNPB; pH 8, 55 °C): 25% | Proxy for plastic degradation (pNPB; pH 8, 60 °C): 15% | Proxy for plastic degradation (pNPB; pH 8, 65 °C): 12.5% | Proxy for plastic degradation (pNPB; pH 8, 70 °C): 10% | Proxy for plastic degradation (pNPB; pH 8, 20 h): 75% | Proxy for plastic degradation (pNPB; pH 8, 40 h): 70% | Proxy for plastic degradation (pNPB; pH 8, 60 h): 55% | Proxy for plastic degradation (pNPB; pH 8, 80 h): 40% | Proxy for plastic degradation (pNPB; pH 8, 100 h): 35% | Proxy for plastic degradation (pNPB; pH 8, 120 h): 25%

B4: unnamed (protein)
chain: MLTHSISPEETDGGRRTPLSRMSRLAARVGVTLSLAAGLTAGVTAPAHASNPYERGPAPTESSVTAVRGYFDTDTDTVSSLVSGFGGGTIYYPTDTSEGTFGGVVIAPGYTASQSSMAWMGHRIASQGFVVFTIDTITRYDQPDSRGRQIEAALDYLVEDSDVADRVDGNRLAVMGHSMGGGGTLAAAENRPELRAAIPLTPWHLQKNWSDVEVPTMIIGAENDTVASVRTHSIPFYESLDEDLERAYLELDGASHFAPNISNTVIAKYSISWLKRFVDEDERYEQFLCPPPDTGLFSDFADYRDSCPHTT
Proxy for plastic degradation (pNPB; pH 8, 0 h): 100% | Proxy for plastic degradation (pNPB; pH 8, 5 °C): 42.5% | Proxy for plastic degradation (pNPB; pH 8, 10 °C): 45% | Proxy for plastic degradation (pNPB; pH 8, 15 °C): 47.5% | Proxy for plastic degradation (pNPB; pH 8, 20 °C): 55% | Proxy for plastic degradation (pNPB; pH 8, 25 °C): 75% | Proxy for plastic degradation (pNPB; pH 8, 30 °C): 100% | Proxy for plastic degradation (pNPB; pH 8, 35 °C): 92.5% | Proxy for plastic degradation (pNPB; pH 8, 40 °C): 87.5% | Proxy for plastic degradation (pNPB; pH 8, 45 °C): 77.5% | Proxy for plastic degradation (pNPB; pH 8, 50 °C): 62.5% | Proxy for plastic degradation (pNPB; pH 8, 55 °C): 35% | Proxy for plastic degradation (pNPB; pH 8, 60 °C): 20% | Proxy for plastic degradation (pNPB; pH 8, 65 °C): 17.5% | Proxy for plastic degradation (pNPB; pH 8, 70 °C): 15% | Proxy for plastic degradation (pNPB; pH 8, 20 h): 87.5% | Proxy for plastic degradation (pNPB; pH 8, 40 h): 77.5% | Proxy for plastic degradation (pNPB; pH 8, 60 h): 65% | Proxy for plastic degradation (pNPB; pH 8, 80 h): 62.5% | Proxy for plastic degradation (pNPB; pH 8, 100 h): 60% | Proxy for plastic degradation (pNPB; pH 8, 120 h): 57.5%

Source: the PETadex activity labels (doi:10.3389/fbioe.2022.865787)
